Results: PMC3875364
Where two headings read alike, the source gives them in different places.

How the values were obtained:
Assay in all cases: fluorescence anisotropy
[1] = molecular target: T1, NC(1-55) WT, zinc-bound (HIV-1 (NL4-3 isolate), UniProt P12493 378-432)
[2] = molecular target: T1, NC(1-55) WT, zinc-bound; remark: listed apart in the source
[3] = molecular target: T2, NC(1-28) (HIV-1 (NL4-3 isolate), UniProt P12493 378-405)
T2 chain: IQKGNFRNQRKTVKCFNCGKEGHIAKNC

[4] = molecular target: NC(29-55) (HIV-1 (NL4-3 isolate), UniProt P12493 406-432)
[5] = molecular target: T3, NC(1-35) (HIV-1 (NL4-3 isolate), UniProt P12493 378-412)
T3 chain: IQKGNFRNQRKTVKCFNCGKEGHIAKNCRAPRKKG

**Q.** What does the source list for CTTCTTTGGGAGTGAATTAG (ssDNA) [5'-FAM-DNA20]?
**A.** Kd [1]: 16 ± 5 nM; Kd [2]: 57 ± 22 nM; Kd [3]: 731 ± 150 nM; Kd [4]: 867 ± 3 nM; Kd [5]: 86 ± 19 nM
